# Fewer inactive variants are shown than the library holds.
# B1: TPR 5TU (parent)
# chain: GGAUCUUCUCGAUCUAACAAAAAAGACAAAUCUGCCACAAAGCUUGAGAGCAUCUUCGGAUGCAGAGGCGGCAGCCUUCGGUGGCGCGAUAGCGCCAACGUUCUCAACUAUGACACGCAAAACGCGUGCUCCGUUGAAUGGAGUUUAUCAUG
# Variants of: B1
# Experiment: polymerase ribozyme fitness, log enrichment relative to wild type (log ratio); higher = more active; in vitro selection for triplet polymerase activity
# How it was run: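 In triplicate, a single round of in vitro selection was run on each mutant library, PCR-built and transcribed, covering one subunit of a heterodimeric triplet polymerase ribozyme. Frozen incubation at −7 °C followed annealing with a biotinylated primer, partner subunit and triplets, and extended constructs were then gel-excised, streptavidin-captured and taken through RT-PCR. Fitness is the logarithm of genotype enrichment over wild-type enrichment, from inverse-variance-weighted replicate averages of Illumina-sequenced inputs and outputs. […] only genotypes with ≥10 input reads and ≥1 read per output were kept.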
row,Variant,polymerase ribozyme fitness (log ratio)
1,A12C A20G G25A A30G U44A A89G U145G,≤ -4.2
2,A12G G81A G92A C114A G152U,≤ -4.2
3,A12C C14U U55A A98G C103G G133A,≤ -4.2
4,G11C C87U,-2.7
5,A12G A41G C85G A106G,-1.5
6,A12G A23C G25A A41G G94C C96U C116U G143C,≤ -4.2
7,G11C C105U C118G,-1.92
8,A12G A52U C76U C93U A120U,-2.12
9,A12C A52C C54U U145A,-3.53
10,G11U G46A C85U,-2.44
11,G11U A17G C57U C63U G81A U82G,-1.64
12,A12G C57G G83U A115G,-2.09
13,G11U C96G,-1.31
14,G11U G86C,-3.55
15,A12G C14G A97U,-2.49
16,A12C U139A,≤ -4.2
17,A12C C57A G83U G136C,-3.78
18,A12G A49C G74A C96U U102G G112U C125U,≤ -4.2
19,G11A U31A,-0.715
20,A12C C27A C36U C72G C118A,≤ -4.2
21,G11A G141U,0.246
22,A12C A39U G59A A91U C93U A150C,≤ -4.2
23,G11U C27U A29C C75U G83C G126U,≤ -4.2
24,A12C C35U G86A C93U,-1.43

row,Variant,polymerase ribozyme fitness (log ratio)
1,G11A U15G A17C A20U U33C A64G C93G A110G A147U,≤ -4.2
2,G11C U148G,≤ -4.2
3,A12G C93U,-1.21
4,A12G C93A,-2.26
5,G11U G48C C79A C93G A119G G141U,≤ -4.2
6,A12C A20C U53A C76A U151G,≤ -4.2
7,A12C A20G A37C C51U G58C A91C,≤ -4.2
8,G11C C57U C95U U127A C149A,≤ -4.2
9,A12G C14G G92C,-2.86
10,G11U A73U G81A G83C G86U G126C G136C,≤ -4.2
11,A12G C75U C93U U144C,-0.389
12,G11A G59A,-1.71
13,A12C C32G G84U,≤ -4.2
14,G11A G58U C96U,-1.58
15,G11C A47C U55A G81A C87G A120U U144A,≤ -4.2
16,G11U C54A,-2.47
17,G11U C103G C123G,-2.44
18,G11C G62A C87G,≤ -4.2
19,G11C G50A G92U G143A,-4.01
20,G11C U61A G67A G94C U145G A147U,≤ -4.2
21,A12C U15A U56A,-0.709
22,A12G C54A G86C C87U G126A,≤ -4.2
23,G11C U56A G86A,≤ -4.2
24,A12C A64G C85A G100C,≤ -4.2

row,Variant,polymerase ribozyme fitness (log ratio)
1,A12C G34U G50U G88C A98U C125A,-4.18
2,G11U A22C C87U,-2.61
3,A12C A60U C75G G88C A91G U109G,≤ -4.2
4,A12G C14G A52C G67A G124A A137C,≤ -4.2
5,A12C A16G U55A,-2.45
6,A12G C14G A17G C75U A91G C105U A106G A121U A137U,≤ -4.2
7,G11U A26U G83A,-4.06
8,A12C C129G,-3.9
9,A12C C125U,-0.492
10,A12G A19U U45A U53A G88U,≤ -4.2
11,G11A U134A,-3.6
12,A12G A23U C35U C76A C93U A97U C116A,-3.12
13,G11U A23U C57U G86A,≤ -4.2
14,G11C A40C G84A A97U,-3.7
15,A12C A19C U45G G84U A142C,≤ -4.2
16,G11U G94A A98C,-1.81
17,A12G A19U A41U G50C C85U G133A U148C,≤ -4.2
18,G11C G46C C57U C85U,-3.93
19,G11C C38U C85G U135C,≤ -4.2
20,A12C U44A U56G G83U A89U C95A A98C C103G A107G,≤ -4.2
21,G11U A26U U61G G84U C85A C96A U139A,≤ -4.2
22,A12C A16U U61A C125A,-3.45
23,A12G C69G A89U C96G U104A,-2.98
24,G11U A29C A89C C125U,-4.16

row,Variant,polymerase ribozyme fitness (log ratio)
1,G11C C51U C85U G140C,≤ -4.2
2,G11A C125U U139G,-2.67
3,A12G C14G A22G U61A G71A C99U C123U A142G,≤ -4.2
4,A12C C27U G34U C63U C93A,-4.1
5,A12G G92A U127A U139A G143A,≤ -4.2
6,A12G U13A A19C G92C C99U G124C U148G G152U,≤ -4.2
7,G11U U13A A17U A26U A41C U45A C87A C108U A142C A147U,≤ -4.2
8,A12C G50C G65A C76G G83U,≤ -4.2
9,A12C A47U U55A,-1.41
10,A12G A17G C93U A120G,-0.897
11,A12G C79U G86C A120G C125U,≤ -4.2
12,A12C C85G A122C,-2.14
13,A12G,0.116
14,A12C,0.0783
15,A12C U15G U56A C75U G86U C129A G133U,≤ -4.2
16,A12C G94U A150G,-2.61
17,G11A G48C G92U,-0.981
18,A12G A30G,-2.97
19,G11U C38A G83U U135C C149G,≤ -4.2
20,G11C G42A G88C U102C G126U,≤ -4.2
21,G11C A17U C79G G86U U101G C125U G152A,≤ -4.2
22,A12C A16U C87G,≤ -4.2
23,A12G A22C A66U C69U G92A,≤ -4.2
24,A12G C57U C87U C103G,-2.19

row,Variant,polymerase ribozyme fitness (log ratio)
1,G11C C35U A52C A60G,≤ -4.2
2,A12C C14A A29G G81A A91G C93U C103A,≤ -4.2
3,G11U C38A C125U,-2.71
4,A12G C75G C93U C108U A110C,≤ -4.2
5,A12G A52C C93U A98U G124A,-2
6,A12C A21U U53A G59C A60G G84A,-0.862
7,A12G G84A G143A A147G,-3.25
8,G11C C63U C85U G86U C114U,≤ -4.2
9,A12G C54U U61A C72A C96U A98U C99A A142C,≤ -4.2
10,A12G G83A G126U U134C U148G,≤ -4.2
11,A12G G88A U109C A142C,-4.12
12,A12G C27U A40U A73G C87G C95A G124U G136A,≤ -4.2
13,G11U A19C U55A G71A A91C G100A U109G A122U,≤ -4.2
14,G11C A40C G42A G58U A60U C85G A89U C93G,≤ -4.2
15,A12C C85U A142U,-1.48
16,G11U C57G A119U A121G C149U,-2.88
17,A12C G71U C93U A97G C103U C131G G141C,≤ -4.2
18,G11C C36U C57A G100A,≤ -4.2
19,G11C G83A G141U,-0.379
20,A12C A37C C72A U90G U101A C103U A138G A142U,≤ -4.2
21,G11U A41U C93U C99A U104G C118U G140U G152U,-4.02
22,A12C A30G,-3.77
23,A12G A17G A19G U53A U55A G81U G84U G117U,-4.04
24,A12G A24U U53A U82G G84A A89U,-3.13

row,Variant,polymerase ribozyme fitness (log ratio)
1,A12G A22G A39U A47U G92U A97G U101G,≤ -4.2
2,A12G A37G C87U U109G U144C U145C C149G,≤ -4.2
3,G11U C76A G83U C85A A137G,≤ -4.2
4,A12C C14U A22C U61G G65A G86A C93U U134G,≤ -4.2
5,A12G U13A U31A C57A G65A C85G,≤ -4.2
6,G11U A22G C54U G65A C76U A98U C103G U144G,≤ -4.2
7,A12G A20U A29U U53G A66C,-4.16
8,G11A U44A A52G C75U C76U G92C C149G,≤ -4.2
9,G11U U33G A66C G84A G128U A137C U145A,≤ -4.2
10,A12G A40C A41G U56A U82G C99A A113C C125U,≤ -4.2
11,G11U U53G C57G G59U G94A,-3.74
12,G11A G94U A113C C114U A122C G143U C149U,≤ -4.2
13,G11U A91G,-3.82
14,A12G A16U A26U G83U C87G U145C,≤ -4.2
15,A12G G74C,-3.9
16,A12C A29U G68C A73C G80U G84C,≤ -4.2
17,A12C A29C C85A G133A,≤ -4.2
18,G11U A52U,-2.33
19,G11A U104A A119U G136A U144A,-2.19
20,A12C C99A A119G U145C,-1.83
21,A12G C38U C99U,-0.24
22,A12G A30U U146G,-3.66
23,A12C A19C C99U,-1.52
24,G11C C14G C93U C125A,≤ -4.2

row,Variant,polymerase ribozyme fitness (log ratio)
1,G11U G34A G88A G124A,≤ -4.2
2,A12G A24U C87U,0.648
3,A12G C87G G88U C96U C105A C108G C116U,≤ -4.2
4,G11U A40C G70C C103G,≤ -4.2
5,G11U G74U G81U G88C A89G C95U G128U U148A,≤ -4.2
6,A12G C36A U55G G94A G141C U148G,≤ -4.2
7,G11U G68U A120U C125U,≤ -4.2
8,A12C G58C C96G,-1.07
9,A12G A39U G42C C57A G59C C79A U134A,≤ -4.2
10,A12G G80C G81C C118U U135A,-1.66
11,G11C G58A,-1.65
12,A12G G25C A122G G136A,-3.16
13,G11A U15G A107G G141C U144C U145A G152A,≤ -4.2
14,A12G A21C C32G G50U C125G,≤ -4.2
15,A12C A20U U61A G92U C131A,≤ -4.2
16,A12G C99G,-0.551
17,G11C G74A C76U C93G A113G U145A,≤ -4.2
18,G11U C14G G34U G84U G141U,≤ -4.2
19,G11C A66U C96A C108G,≤ -4.2
20,A12C A66G A91U,≤ -4.2
21,A12G C51U,0.193
22,A12C A21U A64C G84U U127C A138U,≤ -4.2
23,A12C A40G A41U A52C C54U A66G C95U,≤ -4.2
